Key:
[1] = substrate: N[C@@H](CCC(=O)N[C@@H](CS)C(=O)NCC(=O)O)C(=O)O; assay: purified protein, by the assay type; parameters: GSH conjugation with chloronitrobenzene substrate, absorbance at 340 nm, Km for glutathione; conditions: pH 7.2; 37.0 °C
purified protein = substrate: CN(C)C(=S)SSC(=S)N(C)C; assay: purified protein; assay type: biochemical, Carica papaya; conditions: G-site; S67 necessary for activity

Protein	Km [1]	Vmax [1]	kcat [1]	kcat/Km [1]	Km (purified protein)
TCpGST (Carica papaya) (protein, wild-type full-length ORF, C-terminal His6, pET-30a, E. coli BL21(DE3)) MADEVVLLDFWPSPFGMRIRIALAEKGIHYEYKEENLRNKSPLLLQMNPVHKKIPVLIHNGKPICESLIQIQYIDEVWSDKAPLLPSDPYQRAQARFWADYVDKKMYEAGRRVWTTKGEEQEGAKKEFIEILKTLEGELGEKPYFGGESFGYVDLTFIPFYTWFSVYESFGKMSIEAECPKLFSWVKRCLEKESVSKSLPDQDKVYGFVLELRKALGI	30 ± 8.3 µM	552 µM/min	0.197 ± 0.0169 s⁻¹	6550 M⁻¹ s⁻¹	
tau class glutathione S-transferase from Carica papaya (TCpGST) (Carica papaya) (protein, full-length ORF (657 bp), C-terminal His6, pET-30a, E. coli BL21(DE3), Ni-NTA purified) MADEVVLLDFWPSPFGMRIRIALAEKGIHYEYKEENLRNKSPLLLQMNPVHKKIPVLIHNGKPICESLIQIQYIDEVWSDKAPLLPSDPYQRAQARFWADYVDKKMYEAGRRVWTTKGEEQEGAKKEFIEILKTLEGELGEKPYFGGESFGYVDLTFIPFYTWFSVYESFGKMSIEAECPKLFSWVKRCLEKESVSKSLPDQDKVYGFVLELRKALGI					148.4 ± 7 µM

Source: article PMC10958117, “G-site residue S67 is involved in the fungicide-degrading activity of a tau class glutathione S-transferase from Carica papaya” (The Journal of Biological Chemistry, 2024)
